How the values were obtained:
Nucleolin = target: T1, Nucleolin (Homo sapiens, UniProt P19338 2-710); assay: anti-FLAG co-IP LC-MS, exp 4, +Dox +IFNG
T1 construct: also called NCL

[1] = target: T2, Uncharacterized protein (Fragment) (Homo sapiens); assay: anti-FLAG co-IP LC-MS, exp 4, +Dox +IFNG
T2 construct: also called NA (Homology to TAP2)

[2] = target: T3, Cyclin-dependent kinase 4 (Homo sapiens, UniProt P11802 2-303); assay: anti-FLAG co-IP LC-MS, exp 4, +Dox +IFNG
T3 construct: also called CDK4
T3 sequence (P11802 2-303 limits assumed): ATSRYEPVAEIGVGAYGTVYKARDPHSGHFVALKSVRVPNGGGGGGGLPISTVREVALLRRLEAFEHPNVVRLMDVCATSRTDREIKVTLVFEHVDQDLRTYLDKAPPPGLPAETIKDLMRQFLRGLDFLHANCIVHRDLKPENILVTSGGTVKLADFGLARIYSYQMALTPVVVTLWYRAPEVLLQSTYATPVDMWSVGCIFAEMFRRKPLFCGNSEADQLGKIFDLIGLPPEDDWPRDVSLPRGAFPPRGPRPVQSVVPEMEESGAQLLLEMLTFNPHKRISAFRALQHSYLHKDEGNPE

[3] = target: T4, Heterogeneous nuclear ribonucleoprotein M (Homo sapiens, UniProt P52272 2-730); assay: anti-FLAG co-IP LC-MS, exp 4, +Dox +IFNG
T4 construct: also called HNRNPM
T4 sequence (looked up): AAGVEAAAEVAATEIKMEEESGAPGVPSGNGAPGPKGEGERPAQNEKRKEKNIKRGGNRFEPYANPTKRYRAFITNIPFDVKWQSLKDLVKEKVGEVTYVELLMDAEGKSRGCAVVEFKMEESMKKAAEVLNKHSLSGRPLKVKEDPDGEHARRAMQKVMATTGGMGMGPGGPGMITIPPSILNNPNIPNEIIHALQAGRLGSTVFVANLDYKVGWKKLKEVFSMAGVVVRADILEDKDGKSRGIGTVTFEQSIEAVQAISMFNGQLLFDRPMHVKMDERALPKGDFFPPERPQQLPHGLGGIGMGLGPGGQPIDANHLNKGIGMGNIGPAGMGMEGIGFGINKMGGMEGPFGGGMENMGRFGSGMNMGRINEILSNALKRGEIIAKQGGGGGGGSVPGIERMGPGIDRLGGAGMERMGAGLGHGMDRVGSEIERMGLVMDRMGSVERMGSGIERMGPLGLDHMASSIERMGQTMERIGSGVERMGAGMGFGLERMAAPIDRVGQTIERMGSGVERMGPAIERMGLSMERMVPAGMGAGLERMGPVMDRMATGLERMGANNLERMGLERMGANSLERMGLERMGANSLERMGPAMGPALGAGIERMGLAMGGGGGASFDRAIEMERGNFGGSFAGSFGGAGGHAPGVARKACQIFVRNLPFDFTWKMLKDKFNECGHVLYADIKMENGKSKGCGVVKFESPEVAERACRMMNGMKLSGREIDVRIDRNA

[4] = target: T5, Nuclease-sensitive element-binding protein 1 (Fragment) (Homo sapiens, UniProt P67809 2-324); assay: anti-FLAG co-IP LC-MS, exp 4, +Dox +IFNG
T5 construct: also called YBX1
T5 sequence (P67809 2-324 limits assumed): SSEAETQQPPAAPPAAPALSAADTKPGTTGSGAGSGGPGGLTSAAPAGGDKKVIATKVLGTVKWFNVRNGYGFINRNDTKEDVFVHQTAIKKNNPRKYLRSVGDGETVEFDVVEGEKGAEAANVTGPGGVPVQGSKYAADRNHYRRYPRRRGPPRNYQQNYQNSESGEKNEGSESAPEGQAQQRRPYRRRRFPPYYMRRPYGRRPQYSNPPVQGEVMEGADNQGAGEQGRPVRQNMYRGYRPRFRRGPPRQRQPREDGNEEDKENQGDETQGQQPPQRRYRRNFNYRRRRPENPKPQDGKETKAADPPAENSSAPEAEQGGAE

[5] = target: T6, Immunoglobulin kappa variable 2-40 (Homo sapiens); assay: anti-FLAG co-IP LC-MS, exp 4, +Dox +IFNG
T6 construct: also called IGKV2-40
T6 sequence (A0A087WW87 20-121): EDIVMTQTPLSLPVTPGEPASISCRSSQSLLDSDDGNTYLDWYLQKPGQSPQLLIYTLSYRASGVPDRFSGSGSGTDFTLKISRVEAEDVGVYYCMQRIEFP

[6] = target: T7, cDNA FLJ56329, highly similar to Myosin light polypeptide 6 (Homo sapiens); assay: anti-FLAG co-IP LC-MS, exp 4, +Dox +IFNG
T7 construct: also called MYL6

[7] = target: T8, Signal transducer and activator of transcription 1-alpha/beta (Homo sapiens, UniProt P42224 2-750); assay: anti-FLAG co-IP LC-MS, exp 4, +Dox +IFNG
T8 construct: also called STAT1
T8 sequence (looked up): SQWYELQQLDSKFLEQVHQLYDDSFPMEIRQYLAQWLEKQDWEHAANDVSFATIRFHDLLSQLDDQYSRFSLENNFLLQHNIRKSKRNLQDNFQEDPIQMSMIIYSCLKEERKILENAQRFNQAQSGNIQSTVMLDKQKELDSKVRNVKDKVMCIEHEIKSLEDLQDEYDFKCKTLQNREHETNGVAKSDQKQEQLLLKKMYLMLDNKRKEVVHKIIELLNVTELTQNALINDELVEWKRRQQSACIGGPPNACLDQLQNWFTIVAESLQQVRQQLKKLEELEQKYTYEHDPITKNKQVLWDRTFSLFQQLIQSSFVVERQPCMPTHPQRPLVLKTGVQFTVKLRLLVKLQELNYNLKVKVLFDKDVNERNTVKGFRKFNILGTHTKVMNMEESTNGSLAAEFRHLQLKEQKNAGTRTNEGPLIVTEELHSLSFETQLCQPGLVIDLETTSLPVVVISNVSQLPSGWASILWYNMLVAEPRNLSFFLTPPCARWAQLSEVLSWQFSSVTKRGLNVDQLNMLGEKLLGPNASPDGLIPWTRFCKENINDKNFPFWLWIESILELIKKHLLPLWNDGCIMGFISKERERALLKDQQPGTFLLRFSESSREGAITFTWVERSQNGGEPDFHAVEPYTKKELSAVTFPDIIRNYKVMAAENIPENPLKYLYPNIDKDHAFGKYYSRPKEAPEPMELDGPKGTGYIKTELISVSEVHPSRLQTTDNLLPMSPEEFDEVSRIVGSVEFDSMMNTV

[8] = target: T9, DNA-dependent protein kinase catalytic subunit (Homo sapiens, UniProt P78527 1-4128); assay: anti-FLAG co-IP LC-MS, exp 4, +Dox +IFNG
T9 construct: also called PRKDC
T9 sequence (P78527 whole entry): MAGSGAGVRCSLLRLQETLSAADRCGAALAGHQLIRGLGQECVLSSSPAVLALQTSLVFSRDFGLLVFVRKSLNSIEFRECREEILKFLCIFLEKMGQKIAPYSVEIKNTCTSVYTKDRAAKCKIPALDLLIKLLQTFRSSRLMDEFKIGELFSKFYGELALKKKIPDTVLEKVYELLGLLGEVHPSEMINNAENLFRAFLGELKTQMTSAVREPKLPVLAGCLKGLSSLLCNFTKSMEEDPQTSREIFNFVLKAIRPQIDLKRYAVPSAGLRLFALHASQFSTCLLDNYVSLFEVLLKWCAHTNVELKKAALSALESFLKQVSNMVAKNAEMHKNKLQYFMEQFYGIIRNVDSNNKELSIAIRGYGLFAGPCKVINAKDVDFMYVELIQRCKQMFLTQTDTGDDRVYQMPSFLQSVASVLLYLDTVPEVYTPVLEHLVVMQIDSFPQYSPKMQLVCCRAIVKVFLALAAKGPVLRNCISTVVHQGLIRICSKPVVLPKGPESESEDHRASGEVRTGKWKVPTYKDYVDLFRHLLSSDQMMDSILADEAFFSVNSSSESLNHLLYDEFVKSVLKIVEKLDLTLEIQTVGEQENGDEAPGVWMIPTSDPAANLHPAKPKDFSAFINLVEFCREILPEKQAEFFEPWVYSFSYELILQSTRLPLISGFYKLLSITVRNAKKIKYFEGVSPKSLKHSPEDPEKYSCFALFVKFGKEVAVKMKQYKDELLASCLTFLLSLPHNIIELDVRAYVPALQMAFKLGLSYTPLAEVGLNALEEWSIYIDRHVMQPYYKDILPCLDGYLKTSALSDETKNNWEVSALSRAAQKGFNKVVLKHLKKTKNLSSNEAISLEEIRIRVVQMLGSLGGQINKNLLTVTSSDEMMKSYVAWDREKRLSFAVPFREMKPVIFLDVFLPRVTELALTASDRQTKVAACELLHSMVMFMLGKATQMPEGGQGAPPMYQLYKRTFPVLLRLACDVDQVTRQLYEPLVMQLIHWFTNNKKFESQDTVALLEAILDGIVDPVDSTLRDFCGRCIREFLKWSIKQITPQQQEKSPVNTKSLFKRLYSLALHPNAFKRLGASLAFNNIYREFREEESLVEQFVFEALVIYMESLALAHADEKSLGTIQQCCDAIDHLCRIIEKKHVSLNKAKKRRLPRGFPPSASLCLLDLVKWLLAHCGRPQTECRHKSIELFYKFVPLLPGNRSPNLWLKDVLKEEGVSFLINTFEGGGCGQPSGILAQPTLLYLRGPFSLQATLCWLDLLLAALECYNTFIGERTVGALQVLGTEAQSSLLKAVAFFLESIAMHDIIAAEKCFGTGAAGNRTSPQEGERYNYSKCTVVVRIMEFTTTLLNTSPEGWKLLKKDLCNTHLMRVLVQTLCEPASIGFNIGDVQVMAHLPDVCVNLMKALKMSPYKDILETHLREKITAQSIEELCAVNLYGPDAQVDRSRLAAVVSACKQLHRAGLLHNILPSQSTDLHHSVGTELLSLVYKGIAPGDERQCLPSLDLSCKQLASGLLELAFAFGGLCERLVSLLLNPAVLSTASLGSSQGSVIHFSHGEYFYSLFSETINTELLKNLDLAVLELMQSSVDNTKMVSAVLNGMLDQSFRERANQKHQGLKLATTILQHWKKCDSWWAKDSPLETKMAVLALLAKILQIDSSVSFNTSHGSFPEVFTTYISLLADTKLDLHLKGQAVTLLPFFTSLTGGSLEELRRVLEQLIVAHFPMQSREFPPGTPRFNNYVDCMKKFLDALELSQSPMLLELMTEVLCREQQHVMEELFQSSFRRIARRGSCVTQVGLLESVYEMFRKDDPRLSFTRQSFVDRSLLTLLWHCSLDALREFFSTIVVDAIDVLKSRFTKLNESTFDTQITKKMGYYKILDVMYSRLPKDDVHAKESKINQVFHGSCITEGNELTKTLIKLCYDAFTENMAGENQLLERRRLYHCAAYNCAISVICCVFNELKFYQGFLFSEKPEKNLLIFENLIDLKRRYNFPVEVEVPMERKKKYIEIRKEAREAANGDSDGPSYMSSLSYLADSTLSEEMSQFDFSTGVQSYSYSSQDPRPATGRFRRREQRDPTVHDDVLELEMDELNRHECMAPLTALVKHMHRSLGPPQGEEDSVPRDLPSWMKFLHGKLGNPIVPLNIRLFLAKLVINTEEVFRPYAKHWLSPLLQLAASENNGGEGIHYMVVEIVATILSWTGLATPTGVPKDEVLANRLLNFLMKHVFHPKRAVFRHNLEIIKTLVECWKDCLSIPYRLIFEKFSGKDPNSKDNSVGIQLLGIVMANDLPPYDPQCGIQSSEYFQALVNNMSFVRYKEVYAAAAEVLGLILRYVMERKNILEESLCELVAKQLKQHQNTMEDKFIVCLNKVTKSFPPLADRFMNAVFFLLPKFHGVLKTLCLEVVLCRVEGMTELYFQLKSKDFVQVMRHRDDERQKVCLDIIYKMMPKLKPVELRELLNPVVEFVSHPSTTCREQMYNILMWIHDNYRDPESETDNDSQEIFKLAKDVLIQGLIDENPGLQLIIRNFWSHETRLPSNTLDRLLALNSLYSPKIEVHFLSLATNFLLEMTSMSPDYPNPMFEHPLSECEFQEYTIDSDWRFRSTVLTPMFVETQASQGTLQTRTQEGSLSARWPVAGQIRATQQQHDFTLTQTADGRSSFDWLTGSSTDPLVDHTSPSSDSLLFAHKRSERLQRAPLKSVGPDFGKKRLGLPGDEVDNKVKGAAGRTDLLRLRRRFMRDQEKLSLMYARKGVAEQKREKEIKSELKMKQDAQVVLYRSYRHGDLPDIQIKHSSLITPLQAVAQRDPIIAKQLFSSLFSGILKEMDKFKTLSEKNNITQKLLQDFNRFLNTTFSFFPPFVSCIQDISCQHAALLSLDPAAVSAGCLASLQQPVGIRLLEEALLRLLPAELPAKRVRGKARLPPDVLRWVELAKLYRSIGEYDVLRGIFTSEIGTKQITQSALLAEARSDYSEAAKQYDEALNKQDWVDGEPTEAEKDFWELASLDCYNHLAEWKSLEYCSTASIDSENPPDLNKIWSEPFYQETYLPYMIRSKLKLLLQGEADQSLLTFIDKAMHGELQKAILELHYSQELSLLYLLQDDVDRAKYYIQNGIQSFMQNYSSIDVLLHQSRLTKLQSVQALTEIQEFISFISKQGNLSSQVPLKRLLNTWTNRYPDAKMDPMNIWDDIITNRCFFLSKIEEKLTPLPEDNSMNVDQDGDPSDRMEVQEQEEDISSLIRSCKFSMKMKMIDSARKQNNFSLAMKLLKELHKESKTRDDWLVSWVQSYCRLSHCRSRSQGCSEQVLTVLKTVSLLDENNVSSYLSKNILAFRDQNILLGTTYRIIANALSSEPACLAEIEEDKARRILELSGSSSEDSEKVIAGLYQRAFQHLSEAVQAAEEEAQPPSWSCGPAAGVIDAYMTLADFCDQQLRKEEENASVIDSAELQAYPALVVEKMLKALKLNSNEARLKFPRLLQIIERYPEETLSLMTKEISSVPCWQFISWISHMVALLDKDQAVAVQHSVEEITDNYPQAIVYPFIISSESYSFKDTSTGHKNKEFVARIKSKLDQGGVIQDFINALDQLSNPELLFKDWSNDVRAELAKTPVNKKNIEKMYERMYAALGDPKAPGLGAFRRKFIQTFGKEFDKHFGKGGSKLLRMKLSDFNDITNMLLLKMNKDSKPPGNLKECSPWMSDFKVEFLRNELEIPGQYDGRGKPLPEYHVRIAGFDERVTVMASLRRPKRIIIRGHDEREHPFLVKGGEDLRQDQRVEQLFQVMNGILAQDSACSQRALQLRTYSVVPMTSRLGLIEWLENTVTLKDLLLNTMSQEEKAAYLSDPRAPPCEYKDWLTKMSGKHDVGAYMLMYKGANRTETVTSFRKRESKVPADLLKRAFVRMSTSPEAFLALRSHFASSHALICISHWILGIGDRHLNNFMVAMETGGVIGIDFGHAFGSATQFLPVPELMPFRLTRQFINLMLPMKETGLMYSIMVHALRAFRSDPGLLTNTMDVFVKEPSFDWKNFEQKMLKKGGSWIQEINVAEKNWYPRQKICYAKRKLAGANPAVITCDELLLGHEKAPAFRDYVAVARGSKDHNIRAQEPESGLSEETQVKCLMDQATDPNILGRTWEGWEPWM

[9] = target: T10, Polyadenylate-binding protein 1 (Homo sapiens, UniProt P11940 1-636); assay: anti-FLAG co-IP LC-MS, exp 4, +Dox +IFNG
T10 construct: also called PABPC1

[10] = target: T3, Cyclin-dependent kinase 4; assay: anti-FLAG co-IP LC-MS, exp 3, +Dox
[11] = target: T4, Heterogeneous nuclear ribonucleoprotein …; assay: anti-FLAG co-IP LC-MS, exp 3, +Dox
[12] = target: T11, Heterogeneous nuclear ribonucleoprotein U (Homo sapiens, UniProt Q00839 2-825); assay: anti-FLAG co-IP LC-MS, exp 3, +Dox
T11 construct: also called HNRNPU; HNRPU

[13] = target: T5, Nuclease-sensitive element-binding …; assay: anti-FLAG co-IP LC-MS, exp 3, +Dox
[14] = target: T6, Immunoglobulin kappa variable 2-40; assay: anti-FLAG co-IP LC-MS, exp 3, +Dox
[15] = target: ATP-dependent RNA helicase DDX3X (Homo sapiens, UniProt O00571 2-662); assay: anti-FLAG co-IP LC-MS, exp 3, +Dox
[16] = target: T9, DNA-dependent protein kinase catalytic …; assay: anti-FLAG co-IP LC-MS, exp 3, +Dox

B1: i3XFLAG-NLS-CTDaa154-424 (other)
chain: MDYKDHDGDYKDHDIDYKDDDDKPPKRMRREPKKKRKVGRAPAQAGGLCSAAPGGGHPAPSWVAFAHTGAWGTGLPAPHVPCAPGALPQGAFVSQAARAAPALQPSQAAPAEGISQPAPARGDFAYAAPAPPDGALSHPQAPRWPPHPGKSREDRDPQRDGLPGPCAVAQPGPAQAGPQGQGVLAPPTSQGSPWWGWGRGPQVAGAAWEPQAGAAPPPQPAPPDASASARQGQMQGIPAPSQALQEPAPWSALPCGLLLDELLASPEFLQQAQPLLETEAPGELEASEEAASLEAPLSEEEYRALLEEL
notes: Doxycycline-induced in MB135 cells for co-IP; also called longCTD; iDUX4-CTD
PSMs (Nucleolin): 1 PSMs
PSMs [1]: 1 PSMs
PSMs [2]: 11 PSMs
PSMs [3]: 2 PSMs
PSMs [4]: 7 PSMs
PSMs [5]: 5 PSMs
PSMs [6]: 5 PSMs
PSMs [7]: 19 PSMs
PSMs [8]: 2 PSMs
PSMs [9]: 3 PSMs
PSMs [10]: 1 PSMs
PSMs [11]: 9 PSMs
PSMs [12]: 4 PSMs
PSMs [13]: 5 PSMs
PSMs [14]: 2 PSMs
PSMs [15]: 29 PSMs
PSMs [16]: 3 PSMs

Source: US20250339531A1 (FRED HUTCHINSON CANCER CENTER, published 2025)
